Drawing on a protein production outcome set (Wang et al. 2014), this text covers protein production for 23 sequences.

The series can be described thus: label from the status in PepcDB records.

For “MKIDVVTIFPAYLDPLRQSLPGRAIASGLVDLQVHDLRRWTYDVHHSVDDSPYGGGPGMVMKAPVWGEALDEICSAETLLVVPTPAGSLFDQATAQRWSAEQHLVFACGRYEGIDQRVAEDSARRMRVEEVSIGDYVLPGGESAAVVMIEAVLRLLTGVLGNPASHQEDSFSPELDRLLEGPSYTRPPSWRGLDVPEILLSGDHARIATWRREVSLRRTRERRPDLAPPE”, the protein production entry is on record as “failed”.
In the case of “MKIHLGLVVLVFAAMIAAPRSHAADSSAPRVALVIGNSKYPDADKPLSQAVSDARELADDLKRAGFDAELGEDLSGDAMRRAFDRLYQRTKPGAAALVFFSGFGIQSGRQSYLIPADAQIWTEPDVRRDGIALETVLNELNSRGASVKIALIDASRRNPFERRFRSFSAGLAPVIAPSGSLVMYAAALSAVVTDNDSARSPFVTALREEVRAAGRSAEEAFNRARTAVTRASRGEQVPWISSSLAEDFVFTPGAKADKPAVAEPAKQPAAAAPAPAESAKPPTAPAETKPPQAAEAKPSTSRDDDKLVLALASDPTVKSLTAQIADKPSDGNAYYRRGQVYASKGAYRSAIKDFDEAIRLNGKDVEAYNNRCWVRTVIGELEPALADCDQALQLRSNFVDALDSRGLLHLKSGRDKAAIADFDAALKVNPRLTSSLYGRGLARKRIGLASEGEIDLTTAKKLDPNIGKEFAGYGVP”, the protein production entry is recorded as “failed”.
For “MKIIVKTLKGIRFEIEVKPNDSVAEVKKNIETVMGASEYPAAQQILIHKREKLRDETTMEANKVFDKSVIAIIITKGCLEEMEKQNPPLFQMIRHNSAGFVPVLNKESFERDNELAQPEEDLLQLQVTAVDDEAINRVLFYS” the value was “failed”.
For “MKIKATIERVPGGMMIIPLFLGAALNTFAPGTAEFFGGFTGALITGTLPILGVFIFCVGATIDFRSSGYIARKGITLLLGKIGFAALLGVIAAQFIPDDGIQSGFFAGLSVLAIVAVMNETNGGLYLALMNHMGRKEDAGAFAFISTESGPFMTMVTFGVTGLAAFPWETLAATVIPFLLGCILGNLDHDLRDLFSKVVPAIIPFFAFSLGNTLNFGMLIQSGLLGIFIGVSVVILSGSSLFLLDRFIARGDGVAGVAASSTAGAAVAVPYALAEANASFAPVAESATAIIATSVIVTSLLTPLATVWVDKKIKQKKRRTPPPKNQMTIN” the value was “failed”.
As to “MKILAISGSARRNSTNTAMLQAVRAVAPGEIEISIFDGVGRLPVFSPDLEGESLPEVVRNLIDVIAQSDGVIIASPEYVRSIPGGLKNAIDWLVSGDDIVHKPIALLHASHRGDDMLAGLRTVLATITDRFAGDIFLRLPLMKLEPADVLKAVEAAENRSRVQAYLQAFSAYCMADSKTA”, the protein production result is “failed”.
With “MKILLIGASGTLGSAVKERLEKKAEVITAGRHSGDVTVDITNIDSIKKMYEQVGKVDAIVSATGSATFSPLTELTPEKNAVTISSKLGGQINLVLLGIDSLNDKGSFTLTTGIMMEDPIVQGASAAMANGAVTAFAKSAAIEMPRGIRINTVSPNVLEESWDKLEPFFEGFLPVPAAKVARAFEKSVFGAQTGESYQVY”, the protein production entry was “not failed”.
Consider “MKILLKSLVISASLCSPFVLANSEAHSDYLKGTAYLNQDNYKEAITWLTSAANNGSIEAQNKIGTIYAKGIGTEANTQLATQYFLKAAANQSSMAYYNLGKIYESEEKYSTSIDWYNKAIEENNSNAMNNLADLYLHGKGLVQNTHQAELLYIQAAELGNATAMRNLGFLYTNNKEVKQDMSKAYFWFNLAAEKDFPDADKYRDYTGKKLSKSKRIKVQNEALEWLEQHNS”, for which the protein production entry is given as “failed”.
As for “MKILPFIARGTSYYLKMSVKKLVPFLVVGLMLAAGDSVYAYSRGNGSIARGDDYPAYYKNGSQEIDQWRMYSRQCTSFVAFRLSNVNGFEIPAAYGNANEWGHRARREGYRVDNTPTIGSITWSTAGTYGHVAWVSNVMGDQIEIEEYNYGYTESYNKRVIKANTMTGFIHFKDLDGGSVGNSQSSTSTGGTHYFKTKSAIKTEPLASGTVIDYYYPGEKVHYDQILEKDGYKWLSYTAYNGSYRYVQLEAVNKNPLGNSVLSSTGGTHYFKTKSAIKTEPLVSATVIDYYYPGEKVHYDQILEKDGYKWLSYTAYNGSRRYIQLEGVTSSQNYQNQSGNISSYGSHSSSTVGWKKINGSWYHFKSNGSKSTGWLKDGSSWYYLKLSGEMQTGWLKENGLWYYLGSSGAMKTGWYQVSGKWYYSYSSGALAVNTTVDGYRVNSDGERV”, the protein production result is on record as “failed”.
As for “MKILTVNVHAWLEENQMEKIDILARTIAEKQYDVIAMQEVNQLMNNKIIFDDIREENYAWVLLETLQKYTDTDYYLHWSNSHIGFGKYNEGVAVITRHKIKAEDEFYCTFAQSVRTISARRIVSITINYEGQDIEFYSCHMNLPNCETEDMGKNIQTILNRTQNSNLKILMGDFNTDAIGNVAAYENILSQGLFDTYVMAEKKDDGITVDKSIHGWDNDKAKKRLDYIFSNKELKVKESKVIFNNKNKEIVSDHFGIEVKIEF”, the protein production result is listed as “not failed”.
With “MKIQLDINGTEIQKGVWVGSGAIIEPGAILNPPCVIGDNCRIESGAVIDSLSVIGNNNVIERDSSVKRSVIWDGNYIEYGSKIRGAILCSKTNLKRYVHIFENAIVGDNCLINERVVIKPNIKIWPQKTVEPFAIVDRNIIWGSKLEHHHHHH”, the protein production result is “failed”.
As to “MKISFSEIIHNALKEDLGDKGDITTNSILINEKVNFAINTRENLVVCGIPILEEVFNMNKEHVKYEIHKKDGDITGKNSTLVSGEALAIYLLPIERVILNFIQHASGIASITRQFVDEVSGTKVKIRSTRKTTPGLRMLDKYSVCIGGGESYRDNLCDGVLIKDNHIASCGSITLAIQRLRKNLKNEYIAIECDNISQVEESLSNNVDMILLDNMSISEIKKAVDIVNGKSVLEVSGCVNIRNVRNIALTGVDYISIGCITNSFQNKDIGLDIEYNNNK”, the protein production result is on record as “not failed”.
With “MKISIICPLYNAENYIMSLHNKILEQEKPEGTEVEVSYVLTRCKDKTEEMLKNMNLQYTLIEPKDFSHSKTREMMAFKSTGDIIVFISQDVMMKNNFWLKNLVQPIIDGECEASFSRQLCTNNTIEKYIREKNYPEESRVVSKKDINKYGLLTFFYSDASSAVKTSVYKELNGYDNKRLLINEDMYFAEKLIQAGYRIKYCSDSEVYHSHVFTLKSLYERYFDTGVFFRQNSQFLNYKGNKSGKDLAIHVLKRSLEDKNFKVTLNILPNFGARFIGSFLGKKYESLPRSFVMASSMSKKVYSQILEHHHHHH”, the protein production result is on record as “not failed”.
“MKISLRLAVSSILGAIAYLGLAIWGMGGFSAFFGHPQLTLIAIATLLMVVAALYSEVNLSSGEQEDQGNRWVLPVFGVIGLLSGFVPAYSDRIDFCTFGGEGLRWLGALLFILGGGLRLWPVFILGRRFSGLVAIQPNHRLVVDGLYRHLRNPSYLGLLVNALGWALAFRSGLGLLLAALTLVPLIARIHAEEALLLKHFGKEYEAYCARSWRLLPGLY”: the protein production entry is “failed”.
For the sequence “MKITGTVVKLGIVSVVLLFFTVMIIVIFGQMRFDRTNGYTAEFSNVSGLRQGQFVRASGVEIGKVKALHLVDGGRRVRVEFNIDRSVPLYQSTTAQIRYSDLIGNRYVELKRGEGKGANDLLPPGGLIPLSRTSPALDLDALIGGFKPVFRALDPAKVNNIANALITVFQGQGGTINDTLDQTAQLTSQIAERDQAIGEVVKNLNIVLDTTVKHRKEFDETVNNLENLITGLRNHSDQLAGGLAHISNGAGTVADLLAENRTLVRKAVSYLDAIQQPVIDQRVELDDLLHKTPTALTALGRANGTYGDFQNFYLCDLQIKWNGFQAGGPVRTVKLFSQPTGRCTPQ”, the protein production result was “failed”.
For “MKIVSIKIKNYRVFEDIKITNIPSFCVIIGANGTGKSTLFDVFGFLRDALKNNIRQALQIRGGFKEVVTRGKESEDIEIELKFRMEILATERLVTYILIIGQEGKKPVIKREILRYKRGEYGSPFHFLDFHNGQGYAIRNEESFESDEELEREEQKLESADILAIKGLGQFQRFKAANAIRSLIENWHVSDFHISDARGSKAALYAEHLSPTGDNIPIVAQYIYQEHPEIFAEILQRMKQRVPGISNVEAKEIEGGSLILKFQDQAFEDSFVDLYVSDGTIKMFAYLILLFDPKPHPLLCVEEPENQLYPTLLRELAEEFASYAHRGGQVFVSTHSPDFLNAVPLDSIFWLIKIQGVTKVEKAADHEVLRNLIAAGDLPGYLWNQGWFEGVAPLEHHHHHH” the value was “failed”; for “MKKAGILLLSLLMPFSTAFAEASKPLSVELLWQLKRIGSPVVSSTGEHIIAPVTEYDLKEDKGSTQLWRFDVEGKNNRAITAKGLKVSEPVFSPDGKTLAFISERNDDDAGQIYLLPMDGPGEAAKLTDIPTGVNGIKWVGKHLYFISNIFPEQNWEQMKAQLKTDKDNKVSARQWNALPYSQFDHWLDERRQAHVFRIPATGGTVEAVTQPLGHELPRSSQSSESYDISPDERLIAFSAYGSDNRVDPKLDLFLATIGGNKAENITPENPAPDLNPSFSPNGKTLAFTRQKIPGFYADTARLMLLDVSSRKLTTLTPDWDRSVSEFEWTPDSKGFYASIEDAATNRIYHIDAKSGKAKAITQATDFSQPAIAKDGQLIATNQSFLYPARLVSINPRNGKTERLEQFNDDILKDVDLGTYESVTYKGYQGQDIQMWVHYPPGFDRSKKYPLFMLIHGGPHNAISDGFHYRWNAQTFASWGYVTAWPNFHGSSGFGQDFADAINPDWKNKSLEDVLKATDWFKQQSWIDSDRMVAGGASYGGYLTSIILGQPHPFKALLIHAAVYDMYAQMSADFAVHSTRFGNYWDNPELYKAISPHYFAANFNTPTLVSHGQLDYRVPVGQGFELFRTLQTRNVESRMIYFPDENHWIVKPNNSIYWYNQVKDWMAHYAKPGAQ”, “failed”.
In the case of “MKKEFSAGGVLFKDGEVLLIKTPSNVWSFPKGNIEPGEKPEETAVREVWEETGVKGEILDYIGEIHYWYTLKGERIFKTVKYYLMKYKEGEPRPSWEVKDAKFFPIKEAKKLLKYKGDKEIFEKALKLKEKFKL”, the protein production entry is “not failed”.
Take “MKKEKIHLEYLLNATSKNILWSAISTPTGLEDWFADKVVSDDKTVTFCWGKTEQRQAGIVAIRAYSFIRFHWLDDENERDYFEIKMSYNELTGDYVLEITDFSEADEADDLKELWDSQVSKLRRTCGFLEHHHHHH”: the protein production result is reported as “not failed”.
As for “MKKEYGYPTLKVICQASAGNETAIREILKFYDAYICKLCLRPFYHFESGKITMQVDEELKGQIHIEMMKAILKFEIRVK”, the protein production result was “failed”.
The value for “MKKGAFITQIVIYGLILLASSLIANLVNKIWPAFPMPTPLIGMILLYLLLTFKVVKLEQVAGVSNFFVQFISLIFIPSGIALVTKLDVLKAEGVQIVIVIIVSTLMLLLFTAGIAWVLIQVKEWFIARRTNSNVELEED” was “failed”; that for “MKKGTDLLKKGFAKMVKHGVVMDVTNVEQAQIAEEAGAVAVMALERVPADIRAAGGVARMSDPALIEEIMDAVSIPVMAKCRIGHTTEALVLEAIGVDMIDESEVLTQADPFFHIYKKKFNVPFVCGARNLGEAVRRIWEGAAMIRTKGEAGTGNIVEAVRHMRLMNEAIAQLQRMTDEEVYGVAKFYANRYAELAKTVREGMGLPATVLENEPIYEGFTLAEIIDGLYEVLLEVKKLGRLPVVNFAAGGVATPADAALMMQLGSDGVFVGSGIFKSENPLERARAIVEATYNYDKPDIVAEVSKNLGEAMKGIDITQISEAEKMQYRGD” was “not failed”; that for “MKKIAFFIFVILFSVGIYLIWHVLLEKALELKLATSANDLLLKLLAILGVFSMLVLFQGIISSYKKRQLKRILQKIDAMNGFEFEEYSKIFFTSKGFEVSITQKSGDYGADLIIEKDGIKWAVQVKRYSHKVSPKAIQEVVSSKAYYACEKACVITNSYFTQAAQKLAQANEVLLIDRDEWVRFLNEKR” was “failed”.
Regarding “MKKIEIFDPAMCCSTGVCGPSVDPELIRISVAVNNLKNKGIDVTRYNLASEPDAFANNGVISQLLTDKGPDVLPVTLVDGKVVKEKSHLTNEELTQLTDITEEELSQKPVVRLKLNVKK”, the protein production result was “not failed”.
